Measured values from patent US7026456.

B1: monoclonal antibody 16G2, produced by hybridoma HIL-12F3-16G2 (ATCC HB-12449) (antibody, part only; not given: light chain and constant regions, V domains shown, part only)
VH: LEESGPSLVKPSQTLSLTCSVTGDSITSGYWNWIRKFPGNKFEYMGFISYSGSTYNNPSLKNRVSITRDTSNNQYYLQLSSVTTEDSATYYCARSSDALDYWGAGTT
B2: monoclonal antibody 20E11, produced by hybridoma HIL-12F3-20E11 (ATCC HB-12448) (antibody, part only; not given: light chain and constant regions, V domains shown, part only)
VH: EESGPSLVKPSQTLSLTCSVTGDSITSGYWNWIRKFPDNTLEYMGYISYSGSTYYNPSLRSRISITRDTSKNQYSMQLNSVTTEDTATYYCARSSDAMDYWG

Molecular target: natural human IL-12 (p75 heterodimer), purified from stimulated human blood cultures (human) (UniProt P29459)
UniProt P29459, sequence (P29459 23-219, chain 1 of 2): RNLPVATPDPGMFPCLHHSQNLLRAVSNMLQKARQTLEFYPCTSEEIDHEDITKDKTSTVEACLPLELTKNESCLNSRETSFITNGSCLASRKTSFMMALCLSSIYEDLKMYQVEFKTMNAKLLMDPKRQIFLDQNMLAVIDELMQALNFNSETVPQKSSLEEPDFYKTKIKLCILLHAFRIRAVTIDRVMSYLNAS
UniProt P29459, sequence (P29460 23-328, chain 2 of 2, further chain): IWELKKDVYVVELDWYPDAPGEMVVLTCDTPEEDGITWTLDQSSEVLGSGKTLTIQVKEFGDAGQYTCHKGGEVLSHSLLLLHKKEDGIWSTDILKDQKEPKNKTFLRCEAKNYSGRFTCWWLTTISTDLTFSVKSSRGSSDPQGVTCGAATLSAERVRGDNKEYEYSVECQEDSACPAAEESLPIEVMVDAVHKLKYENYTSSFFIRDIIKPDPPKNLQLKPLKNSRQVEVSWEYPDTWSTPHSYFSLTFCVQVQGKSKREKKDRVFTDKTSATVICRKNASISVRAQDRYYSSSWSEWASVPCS
Experiment: cell-based or functional assay

| Binder | IC50 of 0.25 ng/ml IL-12-stimulated proliferation of PHA-activated human lymphoblasts [µg/mL] | IC50 of 0.25 ng/ml human IL-12-stimulated IFN-γ production by PHA-activated human lymphoblasts [µg/mL] | inhibition of IL-12-stimulated IFN-γ production at 0.5 µg/ml antibody [%] | inhibition of human IL-12 stimulated PHA activated lymphoblast proliferation [%] |
| --- | --- | --- | --- | --- |
| B1 | 0.01 | 0.01 | > 90 | > 90 |
| B2 | 0.01 | 0.02 | > 90 | > 90 |
